*1 amine or outer side, *2 acyl side, *3 side chain or, on linkers, in order; H or OH if unused. Primed or numbered codes have the meaning given here. Side-chain parts run from the residue outwards. [ ]: non-standard residue; d: D form. The star is where a group is joined. PEG12 = NCCOCCOCCOCCOCCOCCOCCOCCOCCOCCOCCOCCOCCC(=O)O; γGlu = O=C(O)[C@H](CCC(=O)[*:2])N[*:1]; 1Nal = N[C@@H](Cc1cccc2ccccc12)C(=O)O; Stearoyl = CCCCCCCCCCCCCCCCCC(=O)*; Palmitoyl = CCCCCCCCCCCCCCCC(=O)*; αMeK = C[C@](N)(CCCCN)C(=O)O; Nle = CCCC[C@H](N)C(=O)O; PEG2′ = PEG2 spacer unit; PEG2″ = not defined here; Aib = CC(C)(N)C(=O)O
Biological target: T1, RXFP1 receptor (UniProt Q9HBX9 1-757, limits assumed)
T1 sequence (looked up): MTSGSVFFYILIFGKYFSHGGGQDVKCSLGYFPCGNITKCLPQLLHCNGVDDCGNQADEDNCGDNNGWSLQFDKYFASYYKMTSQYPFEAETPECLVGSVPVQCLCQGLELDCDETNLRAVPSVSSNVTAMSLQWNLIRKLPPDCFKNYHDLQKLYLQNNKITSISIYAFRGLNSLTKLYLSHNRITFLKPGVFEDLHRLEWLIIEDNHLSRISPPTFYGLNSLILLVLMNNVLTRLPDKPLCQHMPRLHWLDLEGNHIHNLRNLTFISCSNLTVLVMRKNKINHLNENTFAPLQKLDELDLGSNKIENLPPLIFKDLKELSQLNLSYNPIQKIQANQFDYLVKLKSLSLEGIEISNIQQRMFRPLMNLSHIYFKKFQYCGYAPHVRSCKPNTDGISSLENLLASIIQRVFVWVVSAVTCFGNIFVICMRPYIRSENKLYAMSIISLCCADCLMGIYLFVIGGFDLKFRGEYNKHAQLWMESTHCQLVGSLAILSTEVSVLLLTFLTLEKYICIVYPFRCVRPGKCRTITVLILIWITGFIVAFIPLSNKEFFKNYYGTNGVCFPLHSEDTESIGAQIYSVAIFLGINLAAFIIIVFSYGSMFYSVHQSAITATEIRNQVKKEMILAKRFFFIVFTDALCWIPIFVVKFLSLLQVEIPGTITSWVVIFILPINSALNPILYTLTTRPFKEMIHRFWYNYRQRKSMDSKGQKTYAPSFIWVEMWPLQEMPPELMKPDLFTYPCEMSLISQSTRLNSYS
Assay: cell-based or functional assay

B1: peptide of SEQ ID NO: 79 (peptide)
peptide: Ac-LEGREKVRAK(Ac)I[Aib][Aib]EG[Nle]ST[1Nal]S[Aib]RKK([PEG2″-PEG2″-PEG2″-γGlu-γGlu-γGlu-Stearoyl])-NH2
EC50 (nM), OVCAR 5 cells (cAMP): 0.4 nM
EMax, OVCAR 5 cells (cAMP): 75%

B2: peptide of SEQ ID NO: 72 (peptide)
peptide: Ac-LEGREKVRAK(Ac)I[Aib][Aib]EG[Nle]STWS[Aib]RK(Ac)KK([PEG2″-PEG2″-γGlu-γGlu-γGlu-Stearoyl])-NH2
EC50 (nM), OVCAR 5 cells (cAMP): 0.17 nM
EMax, OVCAR 5 cells (cAMP): 93%

B3: peptide of SEQ ID NO: 7 (peptide)
peptide: Ac-LEGREKVRAQI[Aib][Aib]EGMSTWS[Aib]RKK([γGlu-γGlu-γGlu-Palmitoyl])-NH2
SMILES: CCCCCCCCCCCCCCCC(=O)N[C@@H](CCC(=O)N[C@@H](CCC(=O)N[C@@H](CCC(=O)NCCCC[C@H](NC(=O)[C@H](CCCCN)NC(=O)[C@H](CCCNC(=N)N)NC(=O)C(C)(C)NC(=O)[C@H](CO)NC(=O)[C@H](Cc1c[nH]c2ccccc12)NC(=O)[C@@H](NC(=O)[C@H](CO)NC(=O)[C@H](CCSC)NC(=O)CNC(=O)[C@H](CCC(=O)O)NC(=O)C(C)(C)NC(=O)C(C)(C)NC(=O)[C@@H](NC(=O)[C@H](CCC(N)=O)NC(=O)[C@H](C)NC(=O)[C@H](CCCNC(=N)N)NC(=O)[C@@H](NC(=O)[C@H](CCCCN)NC(=O)[C@H](CCC(=O)O)NC(=O)[C@H](CCCNC(=N)N)NC(=O)CNC(=O)[C@H](CCC(=O)O)NC(=O)[C@H](CC(C)C)NC(C)=O)C(C)C)[C@@H](C)CC)[C@@H](C)O)C(N)=O)C(=O)O)C(=O)O)C(=O)O
EC50 (nM), OVCAR 5 cells (cAMP): 17.6 nM
EMax, OVCAR 5 cells (cAMP): 87%

B4: peptide of SEQ ID NO: 71 (peptide)
peptide: Ac-LEGREKVRAQI[Aib][Aib]EG[Nle]STWS[Aib]RKKK([PEG2″-PEG2″-γGlu-γGlu-γGlu-Stearoyl])-NH2
EC50 (nM), OVCAR 5 cells (cAMP): 0.52 nM
EMax, OVCAR 5 cells (cAMP): 87%

B5: peptide of SEQ ID NO: 67 (peptide)
peptide: Ac-LEGREKVRAQI[Aib][Aib]EG[Nle]STWS[Aib]RKK([PEG2″-PEG2″-γGlu-γGlu-γGlu-Stearoyl])-NH2
EC50 (nM), OVCAR 5 cells (cAMP): 0.39 nM
EMax, OVCAR 5 cells (cAMP): 89%

B6: peptide of SEQ ID NO: 74 (peptide)
peptide: Ac-LEGREKVRAQI[Aib][Aib]EG[Nle]STWS[Aib]RKK([PEG2″-PEG2″-PEG2″-γGlu-γGlu-γGlu-Stearoyl])-NH2
EC50 (nM), OVCAR 5 cells (cAMP): 0.07 nM
EMax, OVCAR 5 cells (cAMP): 85%

B7: peptide of SEQ ID NO: 77 (peptide)
peptide: Ac-LEGREKVRLQI[Aib][Aib]EG[Nle]STWT[Aib]RKKK([PEG2″-PEG2″-PEG2″-γGlu-γGlu-γGlu-Stearoyl])-NH2
EC50 (nM), OVCAR 5 cells (cAMP): 2.94 nM
EMax, OVCAR 5 cells (cAMP): 92%

B8: peptide of SEQ ID NO: 76 (peptide)
peptide: Ac-LEGREKVRAQI[Aib][Aib]EG[Nle]STWT[Aib]RKKK([PEG2″-PEG2″-PEG2″-γGlu-γGlu-γGlu-Stearoyl])-NH2
EC50 (nM), OVCAR 5 cells (cAMP): 0.8 nM
EMax, OVCAR 5 cells (cAMP): 89%

B9: peptide of SEQ ID NO: 80 (peptide)
peptide: Ac-LEGREKVR[Aib]K(Ac)I[Aib][Aib]EG[Nle]ST[1Nal]S[Aib]RKK([PEG2′-PEG2′-PEG2′-γGlu-γGlu-γGlu-Stearoyl])-NH2
EC50 (nM), OVCAR 5 cells (cAMP): 0.73 nM
EMax, OVCAR 5 cells (cAMP): 68%

B10: peptide of SEQ ID NO: 70 (peptide)
peptide: Ac-LEGREKVRAQI[Aib][Aib]EGQSTWS[Aib]RKKK([PEG2″-PEG2″-γGlu-γGlu-γGlu-Stearoyl])-NH2
EC50 (nM), OVCAR 5 cells (cAMP): 0.28 nM
EMax, OVCAR 5 cells (cAMP): 86%

B11: peptide of SEQ ID NO: 73 (peptide)
peptide: Ac-LEGREKVRAK(Ac)I[Aib][Aib]EG[Nle]STWS[Aib]RKK([PEG2″-PEG2″-γGlu-γGlu-γGlu-Stearoyl])-NH2
EC50 (nM), OVCAR 5 cells (cAMP): 0.12 nM
EMax, OVCAR 5 cells (cAMP): 90%

B12: peptide of SEQ ID NO: 66 (peptide)
peptide: Ac-LEGREKVRAK(Ac)I[Aib][Aib]EG[Nle]STWS[Aib]RKK(Ac)K([PEG12-γGlu-γGlu-γGlu-Palmitoyl])-NH2
SMILES: CCCCCCCCCCCCCCCC(=O)N[C@@H](CCC(=O)N[C@@H](CCC(=O)N[C@@H](CCC(=O)NCCOCCOCCOCCOCCOCCOCCOCCOCCOCCOCCOCCOCCC(=O)NCCCC[C@H](NC(=O)[C@H](CCCCNC(C)=O)NC(=O)[C@H](CCCCN)NC(=O)[C@H](CCCNC(=N)N)NC(=O)C(C)(C)NC(=O)[C@H](CO)NC(=O)[C@H](Cc1c[nH]c2ccccc12)NC(=O)[C@@H](NC(=O)[C@H](CO)NC(=O)[C@H](CCCC)NC(=O)CNC(=O)[C@H](CCC(=O)O)NC(=O)C(C)(C)NC(=O)C(C)(C)NC(=O)[C@@H](NC(=O)[C@H](CCCCNC(C)=O)NC(=O)[C@H](C)NC(=O)[C@H](CCCNC(=N)N)NC(=O)[C@@H](NC(=O)[C@H](CCCCN)NC(=O)[C@H](CCC(=O)O)NC(=O)[C@H](CCCNC(=N)N)NC(=O)CNC(=O)[C@H](CCC(=O)O)NC(=O)[C@H](CC(C)C)NC(C)=O)C(C)C)[C@@H](C)CC)[C@@H](C)O)C(N)=O)C(=O)O)C(=O)O)C(=O)O
EC50 (nM), OVCAR 5 cells (cAMP): 0.57 nM
EMax, OVCAR 5 cells (cAMP): 83%

B13: peptide of SEQ ID NO: 83 (peptide)
peptide: Ac-LEGREKVRAK(Ac)I[Aib][Aib]EG[Nle]STWS[Aib]RKK([PEG2′-PEG2′-PEG2′-γGlu-γGlu-γGlu-Stearoyl])-NH2
EC50 (nM), OVCAR 5 cells (cAMP): 0.85 nM
EMax, OVCAR 5 cells (cAMP): 92%

B14: peptide of SEQ ID NO: 82 (peptide)
peptide: Ac-LEGREKVRAK(Ac)I[Aib][Aib]EG[Nle]STWS[αMeK]RKK(Ac)K([PEG2′-PEG2′-PEG2′-γGlu-γGlu-γGlu-γGlu-Stearoyl])-NH2
EC50 (nM), OVCAR 5 cells (cAMP): 0.02 nM
EMax, OVCAR 5 cells (cAMP): 89%

B15: peptide of SEQ ID NO: 78 (peptide)
peptide: Ac-LEGREKVRAK(Ac)I[Aib][Aib]EG[Nle]STYS[Aib]RKK(Ac)K([PEG2″-PEG2″-PEG2″-γGlu-γGlu-γGlu-Stearoyl])-NH2
EC50 (nM), OVCAR 5 cells (cAMP): 1.04 nM
EMax, OVCAR 5 cells (cAMP): 73%

B16: peptide of SEQ ID NO: 69 (peptide)
peptide: Ac-LEGREKVR[Aib]QI[Aib][Aib]EG[Nle]STWS[Aib]RKKK([PEG2″-PEG2″-γGlu-γGlu-γGlu-Stearoyl])-NH2
EC50 (nM), OVCAR 5 cells (cAMP): 0.56 nM
EMax, OVCAR 5 cells (cAMP): 87%

B17: peptide of SEQ ID NO: 8 (peptide)
peptide: Ac-LEGREKVRAQI[Aib][Aib]EG[Nle]STWS[Aib]RKK([γGlu-γGlu-γGlu-Palmitoyl])-NH2
SMILES: CCCCCCCCCCCCCCCC(=O)N[C@@H](CCC(=O)N[C@@H](CCC(=O)N[C@@H](CCC(=O)NCCCC[C@H](NC(=O)[C@H](CCCCN)NC(=O)[C@H](CCCNC(=N)N)NC(=O)C(C)(C)NC(=O)[C@H](CO)NC(=O)[C@H](Cc1c[nH]c2ccccc12)NC(=O)[C@@H](NC(=O)[C@H](CO)NC(=O)[C@H](CCCC)NC(=O)CNC(=O)[C@H](CCC(=O)O)NC(=O)C(C)(C)NC(=O)C(C)(C)NC(=O)[C@@H](NC(=O)[C@H](CCC(N)=O)NC(=O)[C@H](C)NC(=O)[C@H](CCCNC(=N)N)NC(=O)[C@@H](NC(=O)[C@H](CCCCN)NC(=O)[C@H](CCC(=O)O)NC(=O)[C@H](CCCNC(=N)N)NC(=O)CNC(=O)[C@H](CCC(=O)O)NC(=O)[C@H](CC(C)C)NC(C)=O)C(C)C)[C@@H](C)CC)[C@@H](C)O)C(N)=O)C(=O)O)C(=O)O)C(=O)O
EC50 (nM), OVCAR 5 cells (cAMP): 26.7 nM
EMax, OVCAR 5 cells (cAMP): 98%

B18: peptide of SEQ ID NO: 68 (peptide)
peptide: Ac-LEGREKVRAQI[Aib][Aib]EGESTWS[Aib]RKKK([PEG2″-PEG2″-γGlu-γGlu-γGlu-Stearoyl])-NH2
EC50 (nM), OVCAR 5 cells (cAMP): 0.63 nM
EMax, OVCAR 5 cells (cAMP): 94%

B19: peptide of SEQ ID NO: 81 (peptide)
peptide: Ac-LEGREKVRAK(Ac)I[Aib][Aib]EG[Nle]STWS[Aib]RKK(Ac)K([PEG2′-PEG2′-PEG2′-γGlu-γGlu-γGlu-Stearoyl])-NH2
EC50 (nM), OVCAR 5 cells (cAMP): 0.22 nM
EMax, OVCAR 5 cells (cAMP): 84%

B20: peptide of SEQ ID NO: 75 (peptide)
peptide: Ac-LEGREKVRAQI[Aib][Aib]EG[Nle]STWS[Aib]RKKK([PEG2″-PEG2″-PEG2″-γGlu-γGlu-γGlu-Stearoyl])-NH2
EMax, OVCAR 5 cells (cAMP): 88%

Source: US20190233493A1 (Sanofi, published 2019)
